These results are taken from article PMC5015938, “A Split-Ubiquitin Based Strategy Selecting for Protein Complex-Interfering Mutations” (G3: Genes|Genomes|Genetics, 2016).

Test [1] has as its target T1, PB_(Cdc24) (Saccharomyces cerevisiae, UniProt P11433 668-854).
T1 construct: also called Cdc24 PB domain; source: E. coli BL21DE3, purified (IMAC, optional size exclusion chromatography)
T1 sequence (looked up): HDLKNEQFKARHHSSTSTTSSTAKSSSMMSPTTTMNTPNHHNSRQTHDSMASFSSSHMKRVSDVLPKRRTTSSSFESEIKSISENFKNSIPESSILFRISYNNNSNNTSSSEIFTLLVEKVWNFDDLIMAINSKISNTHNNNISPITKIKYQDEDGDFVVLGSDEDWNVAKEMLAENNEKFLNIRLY
Put plainly: SPR; Biacore X100; PB_(Bem1)-SNAP labelled with BG-Biotin and captured on a CM5 chip coated with anti-biotin antibody; PB_(Cdc24) as analyte; HBSEP (10 mM HEPES, 150 mM NaCl, 3 mM EDTA, 0.05% Tween 20, pH 7.4). Conditions: both partners purified. For orientation: In SPR one partner is held on a chip, and binding of the other changes the refractive index at the surface.

The target of test [2] is T2, PB_(Cdc24)(D833G) (Saccharomyces cerevisiae, UniProt P11433 668-854, D833G).
T2 construct: also called D833G mutant; source: E. coli BL21DE3, purified (IMAC, optional size exclusion chromatography)
T2 sequence (looked up): T1 sequence (looked up) with D166G
The description is as above. Conditions: both partners purified.

A word on the Kd: it is the concentration at which binding is half-saturated. A high value points to a looser complex.

Where a chain is given by its changes, count along the chain named.

B1: PB_(Bem1)-SNAP (domain or fragment, Saccharomyces cerevisiae, UniProt P29366 431-551, looked up)
chain: ASQTSNFASTNQDNTLTGEDLKLNKKLSDLSLSGSKQAPAQSTSGLKTTKIKFYYKDDIFALMLKGDTTYKELRSKIAPRIDTDNFKLQTKLFDGSGEEIKTDSQVSNIIQAKLKISVHDI
modifications: BG-Biotin covalently on the SNAP tag
notes: Bem1, S. cerevisiae, PB domain, residues 431-551; also called Bem1 PB domain; source: E. coli BL21DE3, purified (IMAC, optional size exclusion chromatography)
Take B1: the Kd in test [1] was 21 nM; in test [2], greater than 3200 nM.
